These results are taken from the supplement of paper PMC10567573.

B1: LOXL2 (parent)
chain: YVEVKEGKTWKQICDKHWTAKNSR
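Also: lentivirally expressed fusions sorted by FACS into six bins by GFP to DsRed ratio, PSI derived from sequencing read proportions per bin multiplied by bin number.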

The variants in the data set derive from B1. Kind of data set: protein stability index of a GFP-peptide fusion (GPS, HEK-293T) (PSI 1-6); higher = more stable. To be noted: c terminus: a fixed tail appended.
As to NVEVKEGKTWKQICDKHWTAKNSR, the protein stability index amounted to 3.93.

As for GVEVKEGKTWKQICDKHWTAKNSR, the protein stability index amounted to 3.72. FVEVKEGKTWKQICDKHWTAKNSR: the protein stability index worked out at 3.57.

QVEVKEGKTWKQICDKHWTAKNSR: the protein stability index amounted to 3.58. The figure for SVEVKEGKTWKQICDKHWTAKNSR is 3.71; for RVEVKEGKTWKQICDKHWTAKNSR it is 3.12.

For YVEVKEGKTWKQICDKHWTAKNVR, the protein stability index is 2.15.

With YVEVKEGKTWKQICDKHWTAKNCR, the protein stability index was 2.73. Regarding YVEVKEGKTWKQICDKHWTAKNYR, the protein stability index was determined as 2.64.

Regarding YVEVKEGKTWKQICDKHWTAKNHR, the protein stability index was 2. In the case of YVEVKEGKTWKQICDKHWTAKNIR, the protein stability index was 2.82.

As for YVEVKEGKTWKQICDKHWTAKNFR, the protein stability index was 1.19. For the variant YVEVKEGKTWKQICDKHWTAKNLR, the protein stability index was determined as 2.42. YVEVKEGKTWKQICDKHWTAKNAR: the protein stability index is 2.97. For the variant YVEVKEGKTLKQICDKHWTAKNSR, the protein stability index amounted to 2.46. On to YVEVKEGKTEKQICDKHWTAKNSR, for which the protein stability index was determined as 2.99. As to YVEVKEGKTQKQICDKHWTAKNSR, the protein stability index was determined as 2.7. Take YVEVKEGKTVKQICDKHWTAKNSR: the protein stability index is 2.78. Regarding YVEVKEGKTCKQICDKHWTAKNSR, the protein stability index is 2.17.

As to YVEVKEGKTTKQICDKHWTAKNSR, the protein stability index came out at 2.91. Turning to YVEVKEGKTSKQICDKHWTAKNSR, the protein stability index turned out to be 2.73. YVEVKEGFTWKQICDKHWTAKNSR: the protein stability index came to 2.42. As for YVEVKEGGTWKQICDKHWTAKNSR, the figure is 1.85. On to YVEVKEGPTWKQICDKHWTAKNSR, for which the protein stability index is 2.63. For the variant YVEVKEGETWKQICDKHWTAKNSR, the protein stability index worked out at 2.46. For YVEVKEGQTWKQICDKHWTAKNSR, the protein stability index was 3.07. In the case of YVEVKEGYTWKQICDKHWTAKNSR, the protein stability index stood at 2.21.

Take YVEVKEGHTWKQICDKHWTAKNSR: the protein stability index is 1.44. In the case of YVEVKEGITWKQICDKHWTAKNSR, the protein stability index was determined as 2.67. On to YVEVKEGRTWKQICDKHWTAKNSR, for which the protein stability index was found to be 2.24. Turning to YVEVKEGLTWKQICDKHWTAKNSR, the protein stability index was found to be 2.01.

As to YNEVKEGKTWKQICDKHWTAKNSR, the protein stability index is 3.69.

As to YCEVKEGKTWKQICDKHWTAKNSR, the protein stability index worked out at 2.09.

YREVKEGKTWKQICDKHWTAKNSR: the protein stability index turned out to be 3.03. As for YMEVKEGKTWKQICDKHWTAKNSR, the protein stability index was determined as 2.96. As for YQEVKEGKTWKQICDKHWTAKNSR, the figure is 2.16; as for YEEVKEGKTWKQICDKHWTAKNSR, 3.7. As for YYEVKEGKTWKQICDKHWTAKNSR, the figure is 2.8; as for YDEVKEGKTWKQICDKHWTAKNSR, 3.58; as for YKEVKEGKTWKQICDKHWTAKNSR, 3.

Take YVEVKEGKTWKQICDKHWTAKNSK: the protein stability index stood at 2.76. Take YVEVKEGKTWKQICDKHWTAKNSY: the protein stability index was found to be 3.45. YVEVKEGKTWKQICDKHWTAKNSD: the protein stability index was 1.91. The figure for YVEVKEGKTWKQICDKHWTAKNSP is 1.69. Regarding YVEVKEGKTWKQICDKHWTAKNSI, the protein stability index amounted to 1.74. YVEVKEGKTWKQICDKHWTAKNSA: the protein stability index came to 2.42. The figure for YVEVKEGKTWKQICDKHWTAKNSF is 2.94; for YVEVKEGKTWKQICDKHWTAKNSL it is 2.46. The figure for YVEVKEGKTWKQICDKHHTAKNSR is 3.04; for YVEVKEGKTWKQICDKHTTAKNSR it is 1.94. As to YVEVKEGKTWKQICDKHFTAKNSR, the protein stability index is 2.54. The figure for YVEVKEGKTWKQICDKHITAKNSR is 1.96; for YVEVKEGKTWKQICDKHMTAKNSR it is 2.46; for YVEVKEGKTWKQICDKHETAKNSR it is 2.52. Take YVEVKEGKTWKQICDKHNTAKNSR: the protein stability index stood at 2.58. For YVEVKEGKTWKQICDKHVTAKNSR, the protein stability index is 2.66.

On to YVEVKEGKTWKQICDKHLTAKNSR, for which the protein stability index stood at 2.19. Turning to YVEVKEGKTWKQICDKHSTAKNSR, the protein stability index came to 2.05. For YVEVKEGKTWKQICDVHWTAKNSR, the protein stability index stood at 2.46. For YVEVKEGKTWKQICDIHWTAKNSR, the protein stability index is 2.32. YVEVKEGKTWKQICDRHWTAKNSR: the protein stability index was 3.43. The figure for YVEVKEGKTWKQICDNHWTAKNSR is 1.93; for YVEVKEGKTWKQICDWHWTAKNSR it is 2.44. As for YVEVKEGKTWKQICDLHWTAKNSR, the figure is 2.42.

With YVEVKEGKTWKQICDQHWTAKNSR, the protein stability index turned out to be 2.24. Consider YVEVKEGKTWKQICDEHWTAKNSR, for which the protein stability index worked out at 1.19.

Turning to YVEVKEGKTWKQICDYHWTAKNSR, the protein stability index came out at 2.82. For YVEVDEGKTWKQICDKHWTAKNSR, the protein stability index came to 2.54. For YVEVREGKTWKQICDKHWTAKNSR, the protein stability index was 3.94. Turning to YVEVCEGKTWKQICDKHWTAKNSR, the protein stability index amounted to 1.65. YVEVAEGKTWKQICDKHWTAKNSR: the protein stability index came to 3.18. As for YVEVNEGKTWKQICDKHWTAKNSR, the figure is 1.86; as for YVEVVEGKTWKQICDKHWTAKNSR, 2.63. On to YVEVEEGKTWKQICDKHWTAKNSR, for which the protein stability index was 1.7. As to YVEVSEGKTWKQICDKHWTAKNSR, the protein stability index stood at 1.46.

With YVEVKEGKTWKQICDKHWQAKNSR, the protein stability index turned out to be 3.17. With YVEVKEGKTWKQICDKHWNAKNSR, the protein stability index was found to be 2.95.

On to YVEVKEGKTWKQICDKHWMAKNSR, for which the protein stability index turned out to be 1.99. On to YVEVKEGKTWKQICDKHWGAKNSR, for which the protein stability index was 2.56.

Turning to YVEVKEGKTWKQICDKHWPAKNSR, the protein stability index is 2.11.

Regarding YVEVKEGKTWKQICDKHWEAKNSR, the protein stability index came to 2.15. As for YVEVKEGKTWKQICDKHWFAKNSR, the protein stability index stood at 2.16.

As to YVEVKEGKTWKQICDKHWVAKNSR, the protein stability index amounted to 2.26.

As for YVEVKEGKTWKQICDKHWDAKNSR, the protein stability index was 2.34. YVEVKEGKTWKQICDKHWTGKNSR: the protein stability index was determined as 1.75.

As to YVEVKEGKTWKQICDKHWTEKNSR, the protein stability index is 1.98. As for YVEVKEGKTWKQICDKHWTSKNSR, the figure is 2.73; as for YVEVKEGKTWKQICDKHWTMKNSR, 2.35; as for YVEVKEGKTWKQICDKHWTDKNSR, 2.59. On to YVEVKEGKTWKQICDKHWTKKNSR, for which the protein stability index amounted to 2.25. On to YVEVKEGKTWKQICDKHWTPKNSR, for which the protein stability index stood at 1.67. For YVEVKEGKTWKQICDKHWTCKNSR, the protein stability index was 2.46. Regarding YVEVKEGKTWKQICDKHWTRKNSR, the protein stability index is 2.71. With YVEVKEGKTWKQICDKHWTIKNSR, the protein stability index is 1.99.
